Test results reported in the nanobody polyreactivity screen of Harvey et al. (2022).

Assay: yeast display, Sf9 membrane polyspecificity reagent, FACS + sequencing; frameworks hold sequencing errors
How it was run: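 Using colony PCR, genes from sorted yeast display clones were amplified, then sequenced on MiSeq at 2 × 250 and filtered by CDR length. The clones had been stained with 10% biotinylated, detergent-solubilized Sf9 membrane reagent for 1 hour at 4 °C and sorted by FACS into low and high (top ~1%) gates on anti-HA and streptavidin fluorescence. Polyreactivity labels come from the gate of origin.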

Sequence	polyreactivity (PSR sort gate)
QVQLVESGGGLVQAGGSLRLSCAASGFTFNRYAMAWDRQAPGKERELVATITSGGNTYYADSVKGRFTIARDNAKNTVYLQMNSLKPEDTAVYYCNQLGWYSVYRRDYWGQGTQVTVSS	high polyreactivity
QVQLVESGGGLVQAGGSLRLSCAASGFTFNRYAMGWYIEAPGKERELVASITTGGRTNYADSVKGRFTISRDNAKNTVYLQMNSLKPVDTAVYYCAADYCYFYRYYYWGQGTQVTVSS	high polyreactivity
QVQLVESGGGLVQAGGSLRLSCAASGFTFNRYAMGWYRPAPGKERELVAAISRSTATTYYADSVKGRFTISRDNAMNTVYLQMNSLKPEDTAVFYCNSPQRYWPPYGYWGQGTQVTVSS	high polyreactivity
QVQLVESGGGLVQAGGSLRLSCAASGFTFNRYAMGWYRQAPGKERELVAAISWSGTSTYYADSVKGRFTISRDNAKNTVYLQMNSLKPEDPAVYYCAAYPALTGGLPKSRGYYWGQGTQVTVSS	high polyreactivity
QVQLVESGGGLVQAGGSLRLSCAASGFTFNRYAMGWYRQAPGKERELVARITRGGSTKYADSVKGRFTISRDNAKNTVYLQMNSLKPEDTAVYYCAADYGGFLGYDYWGQGTQVTVSS	high polyreactivity
QVQLVESGGGLVQAGGSLRLSCAASGFTFNRYAMGWYRQAPGKERELVATITSGGNTYYADSVKGRFTISRDNAKNTVYLQMNSLKPEDTAVYYCNKRGWYSVYRRDYWGQGTQVTVSS	high polyreactivity
QVQLVESGGGLVQAGGSLRLSCAASGFTFNRYVMGWYRQAPGKERELVAAIDSGDSTYYADSVKGRFTISRDNAKNTVYLQMNSLKPEDTAVFYCAAEFKSKFFSDIFDNDYDYWGQGTQVSVSS	high polyreactivity
QVQLVESGGGLVQAGGSLRLSCAASGFTFNSYDMYWVRQAPGKGLEWVSSINTNGGSTYYADSVKGRFTISRDNAKNTVYLQMNSLKPEDTAVYYCAADGDTVGHSYRYDYWGQGTQVTVSS	low polyreactivity
QVQLVESGGGLVQAGGSLRLSCAASGFTFNYNTMGWYRQAPGKERELVARISRSGGRTYYADSVKGRFTISRDNAKNTVYLQMNSLKPEDTAVYYCNTDYYGVRHRYDYWGQGTQVTVSS	high polyreactivity
QVQLVESGGGLVQAGGSLRLSCAASGFTFNYYAMGSYRQAPGKERELVAAITWRSGRTSYADSVKGRFTISRDNAKNTVYLQMNSLKPEDTAVYYCAKYPIYSGLTRYGYWGQGTQVTVSS	high polyreactivity
QVQLVESGGGLVQAGGSLRLSCAASGFTFNYYAMGWYRQAPGKERELVAAISRSGGNTYYADSVKGRFTISRDNAKNTVYLQMNSLKPEDTAVYYCAAYLRSYVRYYYWGQGTQVTVSS	high polyreactivity
QVQLVESGGGLVQAGGSLRLSCAASGFTFNYYPMGWYRQAPGKERELVAAIDSGGNTYYADSVKGRFTISRDNAKNTVYLQMNSLKPEDTAVYYCAAYRDYQYDFWGQGTQVTVSS	low polyreactivity
QVQLVESGGGLVQAGGSLRLSCAASGFTFPDYAMGWYRQAPGKERELVAAISSDGSTYYADSVKGPFTISRDNAKNTVYLQMNSLKPEDTAVYYCAAYVVWLYGDDYWGQGTQVTVSS	low polyreactivity
QVQLVESGGGLVQAGGSLRLSCAASGFTFPEYSMGWYRQAPGKERELVAAITRRGTTTYYADSVKGRFTISRYTAKNTVYLQMNILKPEDTAVYYCAALAWSAYDYWGQGTQVTVSS	high polyreactivity
QVQLVESGGGLVQAGGSLRLSCAASGFTFPFYTMGWYRQAPGKERELVAAISRSGASTFYADSVKGRFTISRDNAKNTGYLQMNSLKPEDTAVYYCAGRRGYAPYEYWGQGTQVTVSS	high polyreactivity
QVQLVESGGGLVQAGGSLRLSCAASGFTFPFYTMGWYRQAPGKERELVAAITRSGASTFYADSVKGRFTISRDNAKNTVYLQMNSLKPEDTAVYYCAARRGYAPYEYWGQGTQVNVSS	high polyreactivity
QVQLVESGGGLVQAGGSLRLSCAASGFTFPFYTMGWYRQAPGKERELVAAITRSGASTFYADSVKGRFTISRDNAMNTVYLQMNSLKPEDTAVYYCATQLHRYYQDDYWGQGTQVTVSS	high polyreactivity
QVQLVESGGGLVQAGGSLRLSCAASGFTFPGDAMGWYRQAPGKERELVAAIDTSGGNTYADSVKGRFTISRDNAKNTVYLQMNSLKPEDTAVYYCAADYYYVYSSFGHYYWGQGTQVTVSS	low polyreactivity
QVQLVESGGGLVQAGGSLRLSCAASGFTFPGYAMGWYRQAPGKERELVAAISKRGGSTYYADSVKGRFTISRDNAKNTVYLQMNSLKPEDTAVYYCAKSRRGSFYYPYTYTKSGYEYWGQGTQVTVSS	high polyreactivity
QVQLVESGGGLVQAGGSLRLSCAASGFTFPGYAMGWYRQAPGKERELVAAISSSGGSTYYADSVKGRFTISRDNAKNTVYLQMNSLKPEDTAVYYCAARHGQSWQWLEYDYWGQGTQVTVSS	low polyreactivity
QVQLVESGGGLVQAGGSLRLSCAASGFTFPGYTKGWYIQAPGKERELVATISRSGGSMFYADSVKGRFTISRDNAKNTVYLQMNSLKPEDTAVYYCNKSPSWWRYKTGLDYWGQGTQVTVSS	high polyreactivity

Sequence	polyreactivity (PSR sort gate)
QVQLVESGGGLVQAGGSLRLSCAASGFTFPKYAMGWYRQAPGKERELVAGITTGGSTYYADSVKGRFTISRDNAKNTVYLQMNSLKPEDTAVYYCAASGRLSLGGRFYDLGLRYDYWGQGTQVTVSS	low polyreactivity
QVQLVESGGGLVQAGGSLRLSCAASGFTFPLNAMGWYRQAPGKEREFVAAITYSGGGTYYADSVKGRFTISRDNAKNTVYLQMNSLKPEDTAVYYCAAERGYQAHPGQGDYWGQGTQVTVSS	high polyreactivity
QVQLVESGGGLVQAGGSLRLSCAASGFTFPRNAMGCYRQAPGKERELVAGISKSGGSTYYADSVKGRFTISRDNAKNTVYLQMNSLKPEDTAVYYCAKAVNSPRKYQLGNGYWGQGTQVTVSS	high polyreactivity
QVQLVESGGGLVQAGGSLRLSCAASGFTFPRYAMGWYREAPGKEREFVAAINRGGSTYYADSVKGRFTISRDNAKNTVYLQMNSLKPEDTAVYYCITDRKNRPSPGDYYWGQGTQVTVSS	low polyreactivity
QVQLVESGGGLVQAGGSLRLSCAASGFTFPRYAMGWYRQAPGKERELVAAITSGDRTYYADSVKGRFTISRDNAKNTVYLQMNSLKPEDTAVYYCATSSRYRYWHRYDYWGLGTQVTVSS	high polyreactivity
QVQLVESGGGLVQAGGSLRLSCAASGFTFPVNAMGWYRQAPGKERELVATINSGGSTNYADSVKGRFTISRDNAKNTVYLQMNSLKPEDTAVYYCAAVTTDGVYAFDYWGQGTQVTVSS	low polyreactivity
QVQLVESGGGLVQAGGSLRLSCAASGFTFPVYAMGWYREAPGKERELVAAISTSAGSTYYADSVKGRFSISRDNAKNTVYLQLNSLKPEDTAVYYCNADVAGGYGWKSYHGYDYWGQGTQVTVSS	high polyreactivity
QVQLVESGGGLVQAGGSLRLSCAASGFTFPWNVMGWYRQAPGKEREFVAAISKSAGSTFYADSVKGRFTISRDNAKNTVYLQMNSLKPEDTAVYYCAKPRVPGVHVQEMYYWGQGTQVTVSS	low polyreactivity
QVQLVESGGGLVQAGGSLRLSCAASGFTFPWYAMGWDRQAPGKERELVASISYRGDSTYYADSVKGRFTFSRDNAKNTVYLQMNSLKPEDTAVYYCNKRLASYYLPGFDYWGQGTQVSVSS	low polyreactivity
QVQLVESGGGLVQAGGSLRLSCAASGFTFPWYAMGWYRQAPGKERELVAAISTSGDSTYYADSVKGRFTISRDNAKNTVYLQMNSLKPEDTAVYYCAARVVRGRYGYWGQGTQVTVSS	high polyreactivity
QVQLVESGGGLVQAGGSLRLSCAASGFTFPWYAMGWYRQAPGKERELVATITRGGSTYYADSVKGRFTISRDNAKNTVYLQMNSLKPEDTAVYYCAVTYWRYHSYSPYDYWGQGTQVTVSS	high polyreactivity
QVQLVESGGGLVQAGGSLRLSCAASGFTFPWYTMGWYRQAPGKERELGAAINSRGGSTYYADSVKGRFTISRDNAKNTVYLQMNSLKPEDTAVYYCATRSFGRMDYWGQGTQVTVSS	high polyreactivity
QVQLVESGGGLVQAGGSLRLSCAASGFTFPYYAMGWYRQAPGKERELVAAISSGGNTNYADSVKGRFTISRDNAKNTVYLQMNSLKPEDTAVYYCAAVFLRYLNWSVKYDYWGQGTQVTVSS	low polyreactivity
QVQLVESGGGLVQAGGSLRLSCAASGFTFQENAMGWYRQAHGKERELVAAISTSGDSTYYADSVKGRFTISRDNAKNTVYLQMNSLKPEDTAVYYCATAYEVLVACVLYDYWGKGTQVTVSS	low polyreactivity
QVQLVESGGGLVQAGGSLRLSCAASGFTFQENAMGWYRQATGKERELVAAISKSGGITYYADSVKGRFTISRENAKNNVYLQMNSLKPEDTAVYYCNIGNAYVVYTSGYDYWGQGTQVTVSS	low polyreactivity
QVQLVESGGGLVQAGGSLRLSCAASGFTFQFYAMGWYRQAPGKERELVAAITWSGGSTYYADSVKGRFTISRDNAKNSVYLQLKSLKPEDTAVYFCAKDRRTYLSYIYDYWGQGTQVTVSS	high polyreactivity
QVQLVESGGGLVQAGGSLRLSCAASGFTFQIYAMGWYRQAPGKERELVAAITWSGGRTYYGDSVKGRFTISRDNAKNTVYLQMNSLKREDTAVYYSNARYTTGSDPGGPGTYGYWGQGTQVTVSS	low polyreactivity
QVQLVESGGGLVQAGGSLRLSCAASGFTFQRNAMGWYRPAPGKERELVAAISKSGGSTYYADSVKGRFTISRDNAKNTVYLQMNSLKPEDTAVYYCARDRGYQSGYDYWGQGTQVTVSS	high polyreactivity
QVQLVESGGGLVQAGGSLRLSCAASGFTFQRYAMGWYRQAPGKERELVAAISGSGGSTYYADSVKGRFTISRDNAKNTVYLQMNSLKPEDTAVYYCAARYKYKDLYRYDYWGQGTQVTVSS	high polyreactivity
QVQLVESGGGLVQAGGSLRLSCAASGFTFQRYAMGWYRQAPGKERELVAGITRRSGSTFYADSVKGRFTISRDNAKNNVYLLMNSLKPEDTAVYYCAATVPGLHWIYDFWGQGTQVTVSS	high polyreactivity
